Patent US20230235013A1 (MABSOLVE, published 2023)
Changes are numbered by the printed parent chain. Numbers in names are those of the source.

B1: anti-CD20 human IgG1 L234N/L235D/G236R (antibody)
heavy: QVQLQQPGAELVKPGASVKMSCKASGYTFTSYNMHWVKQTPGRGLEWIGAIYPGNGDTSYNQKFKGKATLTADKSSSTAYMQLSSLTSEDSAVYYCARSTYYGGDWYFNVWGAGTTVTVSSASTKGPSVFPLAPSSKSTSGGTAALGCLVKDYFPEPVTVSWNSGALTSGVHTFPAVLQSSGLYSLSSVVTVPSSSLGTQTYICNVNHKPSNTKVDKKVEPKSCDKTHTCPPCPAPENDRGPSVFLFPPKPKDTLMISRTPEVTCVVVDVSHEDPEVKFNWYVDGVEVHNAKTKPREEQYNSTYRVVSVLTVLHQDWLNGKEYKCKVSNKALPAPIEKTISKAKGQPREPQVYTLPPSRDELTKNQVSLTCLVKGFYPSDIAVEWESNGQPENNYKTTPPVLDSDGSFFLYSKLTVDKSRWQQGNVFSCSVMHEALHNHYTQKSLSLSPGK
light: QIVLSQSPAILSASPGEKVTMTCRASSSVSYIHWFQQKPGSSPKPWIYATSNLASGVPVRFSGSGSGTSYSLTISRVEAEDAATYYCQQWTSNPPTFGGGTKLEIKRTVAAPSVFIFPPSDEQLKSGTASVVCLLNNFYPREAKVQWKVDNALQSGNSQESVTEQDSKDSTYSLSSTLTLSKADYEKHKVYACEVTHQGLSSPVTKSFNRGEC
notes: also called 1-93; copies: 2 + 2
B2: anti-CD20 human IgG1 L234N/L235E/G236R (antibody)
heavy: B1 heavy with D239E
light: B1 light
notes: also called 1-94; copies: 2 + 2
B3: anti-CD20 human IgG1 L234N/L235G/G236R (antibody)
heavy: B1 heavy with D239G
light: B1 light
notes: also called 1-95; copies: 2 + 2
B4: anti-CD20 human IgG1 L234N/L235H/G236R (antibody)
heavy: B1 heavy with D239H
light: B1 light
notes: also called 1-96; copies: 2 + 2
B5: anti-CD20 human IgG1 L234N/L235I/G236R (antibody)
heavy: B1 heavy with D239I
light: B1 light
notes: also called 1-97; copies: 2 + 2
B6: anti-CD20 human IgG1 L234N/L235K/G236R (antibody)
heavy: B1 heavy with D239K
light: B1 light
notes: also called 1-98; copies: 2 + 2
B7: anti-CD20 human IgG1 L234N/L235N/G236R (antibody)
heavy: B1 heavy with D239N
light: B1 light
notes: copies: 2 + 2
B8: anti-CD20 human IgG1 L234N/L235Q/G236R (antibody)
heavy: B1 heavy with D239Q
light: B1 light
notes: copies: 2 + 2
B9: anti-CD20 human IgG1 L234N/L235R/G236R (antibody)
heavy: B1 heavy with D239R
light: B1 light
notes: copies: 2 + 2
B10: anti-CD20 human IgG1 L234N/L235S/G236R (antibody)
heavy: B1 heavy with D239S
light: B1 light
notes: copies: 2 + 2
B11: anti-CD20 human IgG1 L234N/L235T/G236R (antibody)
heavy: B1 heavy with D239T
light: B1 light
notes: copies: 2 + 2
B12: anti-CD20 human IgG1 L234N/L235V/G236R (antibody)
heavy: B1 heavy with D239V
light: B1 light
notes: copies: 2 + 2
B13: anti-CD20 human IgG1 L234Q/L235E/G236R (antibody)
heavy: B1 heavy with N238Q, D239E
light: B1 light
notes: copies: 2 + 2
B14: anti-CD20 human IgG1 L234Q/L235G/G236R (antibody)
heavy: B1 heavy with N238Q, D239G
light: B1 light
notes: also called 1-110; copies: 2 + 2
B15: anti-CD20 human IgG1 L234Q/L235H/G236R (antibody)
heavy: B1 heavy with N238Q, D239H
light: B1 light
notes: also called 2-29; copies: 2 + 2
B16: anti-CD20 human IgG1 L234Q/L235I/G236R (antibody)
heavy: B1 heavy with N238Q, D239I
light: B1 light
notes: copies: 2 + 2
B17: anti-CD20 human IgG1 L234Q/L235K/G236R (antibody)
heavy: B1 heavy with N238Q, D239K
light: B1 light
notes: copies: 2 + 2
B18: anti-CD20 human IgG1 L234Q/L235M/G236R (antibody)
heavy: B1 heavy with N238Q, D239M
light: B1 light
notes: also called 1-115; copies: 2 + 2
B19: anti-CD20 human IgG1 L234Q/L235N/G236R (antibody)
heavy: B1 heavy with N238Q, D239N
light: B1 light
notes: copies: 2 + 2
B20: anti-CD20 human IgG1 L234Q/L235Q/G236R (antibody)
heavy: B1 heavy with N238Q, D239Q
light: B1 light
notes: also called 2-31; copies: 2 + 2
B21: anti-CD20 human IgG1 L234Q/L235V/G236R (antibody)
heavy: B1 heavy with N238Q, D239V
light: B1 light
notes: copies: 2 + 2
B22: anti-CD20 human IgG1 L234R/G236R (antibody)
heavy: not shown
light: B1 light
notes: also called 2-41; copies: 2 + 2
B23: anti-CD20 human IgG1 L234R/L235A/G236R (antibody)
heavy: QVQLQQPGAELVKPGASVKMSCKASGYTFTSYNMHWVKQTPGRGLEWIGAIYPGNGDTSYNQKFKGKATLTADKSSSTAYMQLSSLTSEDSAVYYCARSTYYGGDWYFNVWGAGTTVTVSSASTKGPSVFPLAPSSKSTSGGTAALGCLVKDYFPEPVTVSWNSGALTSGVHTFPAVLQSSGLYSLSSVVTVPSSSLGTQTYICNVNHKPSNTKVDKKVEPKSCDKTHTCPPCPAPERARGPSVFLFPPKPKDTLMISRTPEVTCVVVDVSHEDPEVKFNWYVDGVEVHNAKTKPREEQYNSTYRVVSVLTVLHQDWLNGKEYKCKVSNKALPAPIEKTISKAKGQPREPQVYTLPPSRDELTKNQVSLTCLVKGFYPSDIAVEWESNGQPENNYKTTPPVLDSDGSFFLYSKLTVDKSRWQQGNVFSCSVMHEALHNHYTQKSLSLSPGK
light: B1 light
notes: copies: 2 + 2
B24: anti-CD20 human IgG1 L234R/L235E/G236R (antibody)
heavy: B1 heavy with N238R, D239E
light: B1 light
notes: also called 2-37; copies: 2 + 2
B25: anti-CD20 human IgG1 L234R/L235G/G236R (antibody)
heavy: B1 heavy with N238R, D239G
light: B1 light
notes: copies: 2 + 2
B26: anti-CD20 human IgG1 L234R/L235N/G236R (antibody)
heavy: B1 heavy with N238R, D239N
light: B1 light
notes: copies: 2 + 2
B27: anti-CD20 human IgG1 L234R/L235Q/G236R (antibody)
heavy: B1 heavy with N238R, D239Q
light: B1 light
notes: also called 2-42; copies: 2 + 2
B28: anti-CD20 human IgG1 L234R/L235S/G236R (antibody)
heavy: B1 heavy with N238R, D239S
light: B1 light
notes: copies: 2 + 2
B29: anti-CD20 human IgG1 L234R/L235V/G236R (antibody)
heavy: B1 heavy with N238R, D239V
light: B1 light
notes: copies: 2 + 2
B30: anti-CD20 human IgG1 L234S/L235A/G236R (antibody)
heavy: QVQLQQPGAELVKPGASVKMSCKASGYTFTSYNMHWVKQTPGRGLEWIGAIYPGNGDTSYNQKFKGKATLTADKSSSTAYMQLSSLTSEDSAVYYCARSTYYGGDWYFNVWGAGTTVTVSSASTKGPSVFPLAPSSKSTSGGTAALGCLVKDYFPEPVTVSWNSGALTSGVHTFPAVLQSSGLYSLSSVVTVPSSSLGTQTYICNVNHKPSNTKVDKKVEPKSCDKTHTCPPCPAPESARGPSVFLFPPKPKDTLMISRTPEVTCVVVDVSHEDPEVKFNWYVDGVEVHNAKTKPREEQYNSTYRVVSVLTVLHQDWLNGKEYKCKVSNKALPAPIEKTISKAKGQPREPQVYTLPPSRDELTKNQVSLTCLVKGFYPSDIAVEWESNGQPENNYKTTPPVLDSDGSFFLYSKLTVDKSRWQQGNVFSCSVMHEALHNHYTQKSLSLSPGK
light: B1 light
notes: also called 1-137; copies: 2 + 2
B31: anti-CD20 human IgG1 L234S/L235E/G236R (antibody)
heavy: B1 heavy with N238S, D239E
light: B1 light
notes: also called 2-46; copies: 2 + 2
B32: anti-CD20 human IgG1 L234S/L235I/G236R (antibody)
heavy: B1 heavy with N238S, D239I
light: B1 light
notes: also called 2-49; copies: 2 + 2
B33: anti-CD20 human IgG1 L234S/L235K/G236R (antibody)
heavy: B1 heavy with N238S, D239K
light: B1 light
notes: copies: 2 + 2
B34: anti-CD20 human IgG1 L234S/L235M/G236R (antibody)
heavy: B1 heavy with N238S, D239M
light: B1 light
notes: copies: 2 + 2
B35: anti-CD20 human IgG1 L234S/L235N/G236R (antibody)
heavy: B1 heavy with N238S, D239N
light: B1 light
notes: copies: 2 + 2
B36: anti-CD20 human IgG1 L234S/L235Q/G236R (antibody)
heavy: B1 heavy with N238S, D239Q
light: B1 light
notes: copies: 2 + 2
B37: anti-CD20 human IgG1 L234S/L235R/G236R (antibody)
heavy: B1 heavy with N238S, D239R
light: B1 light
notes: also called 2-51; copies: 2 + 2
B38: anti-CD20 human IgG1 L234S/L235S/G236R (antibody)
heavy: B1 heavy with N238S, D239S
light: B1 light
notes: also called 1-149; copies: 2 + 2

Target: T1, Histidine-tagged recombinant human FcγRI (CD64) (human, UniProt P12314 16-288)
T1 construct: bought; also called Sino Biological Cat. No. 12056-H08H
Assay: SPR, culture supernatant, captured His-FcγRI;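 further: biacore T200 SPR at 25 °C, anti-His capture, supernatants of HEK293 cells expressing IgG1 Fc variants injected 1 min, reference-subtracted response read 55 s after injection start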
Procedure: Binding analysis was carried out by surface plasmon resonance at 25° C. using a Biacore® T200 instrument with Biacore® T200 control software. The running buffer (HBS-EP+) consisted of 0.01 M HEPES pH 7.4, containing 0.15 M NaCl, 3 mM EDTA, and 0.05% v/v Surfactant P20. The sample compartment was held at 4° C. during analysis.
The cell was activated by treatment with EDC/NHS for 7 min. The antibody was diluted to 5 μg/mL in 10 mM sodium acetate pH 4.5 and injected for 7 min at 5 μL/min. The flow cell was deactivated by injection of 1M ethanolamine for 7 min. This process was repeated in the absence of anti-his antibody on a separate flow cell to generate a reference surface. […] Samples of undiluted culture supernatants from HEK293 cells expressing human IgG1 antibodies comprising variant Fc regions were injected for 1 min at 30 μL/min and allowed to disassociate for 2 min. […] Therefore, regeneration between cycles was not necessary. Responses on the test flow cell (coupled with anti-His antibody) were analysed after subtraction of responses on the control flow cell (sham-coupled). The relative binding response was measured 55 sec after the beginning of sample injection. To account for any possible drift in response due to slow dissociation of the His-tagged FcγRI, the binding response was measured relative to a baseline interpolated between report points located before sample injection and at the end of dissociation.
The whole experiment was repeated three times. Due to the relatively crude nature of the samples (variable refractive index, presence of culture media and other cellular products), some sensorgrams were unsatisfactory and were eliminated from analysis. The mean and standard deviation of binding response was then calculated for each sample.

| Binder | Mean binding response |
| --- | --- |
| B1 | 13.4 RU |
| B2 | 16.4 RU |
| B3 | 22.1 RU |
| B4 | 17.7 RU |
| B5 | 14.1 RU |
| B6 | 25 RU |
| B7 | 16.9 RU |
| B8 | 4.5 RU |
| B9 | 30.4 RU |
| B10 | 18.4 RU |
| B11 | 8.6 RU |
| B12 | 18.9 RU |
| B13 | 28.8 RU |
| B14 | 28.1 RU |
| B15 | 10 RU |
| B16 | 34.7 RU |
| B17 | 26.9 RU |
| B18 | 38.4 RU |
| B19 | 26.8 RU |

| Binder | Mean binding response |
| --- | --- |
| B20 | 16.8 RU |
| B21 | 20.9 RU |
| B22 | 21.1 RU |
| B23 | 28.1 RU |
| B24 | 16.7 RU |
| B25 | 31.9 RU |
| B26 | 10.8 RU |
| B27 | 10.1 RU |
| B28 | 34 RU |
| B29 | 32.5 RU |
| B30 | 29.6 RU |
| B31 | 11.6 RU |
| B32 | 12 RU |
| B33 | 23.8 RU |
| B34 | 32 RU |
| B35 | 22.7 RU |
| B36 | 29.6 RU |
| B37 | 11.1 RU |
| B38 | 25.6 RU |
